# Measurements from patent US10000771B2, “Nuclear targeting sequences” (Yeda Research and Development Co. Ltd., priority 2007, dated 2018).
# B1: EPE-ERK2: GFP-ERK2 with the two Ser residues of the SPS domain replaced with Glu (phosphomimetic) (protein)
# chain: MAAAAAAGPEMVRGQVFDVGPRYTNLSYIGEGAYGMVCSAYDNLNKVRVAIKKISPFEHQTYCQRTLREIKILLRFRHENIIGINDIIRAPTIEQMKDVYIVQDLMETDLYKLLKTQHLSNDHICYFLYQILRGLKYIHSANVLHRDLKPSNLLLNTTCDLKICDFGLARVADPDHDHTGFLTEYVATRWYRAPEIMLNSKGYTKSIDIWSVGCILAEMLSNRPIFPGKHYLDQLNHILGILGEPEQEDLNCIINLKARNYLLSLPHKNKVPWNRLFPNADSKALDLLDKMLTFNPHKRIEVEQALAHPYLEQYYDPSDEPIAEAPFKFDMELDDLPKEKLKELIFEETARFQPGYRS
# modifications: left off: large carriers
# Tests used:
# [1] = test system: COS7 cells; test: Subcellular fractionation of GFP-ERK2 constructs; type: cell-based; conditions: 48 hr after transfection, serum-starved
# Protocol: FIG. 6 is an autoradiograph illustrating the subcellular fractionation of WT-GFP-ERK2 (WT), APA-GFP-ERK2 (APA), or EPE-GFP-ERK2 (EPE). COS7 cells were grown in 10 cm plates and transfected with the above ERK2 constructs. Twenty-four hr after transfection the cells were serum-starved for 16 hr and subjected to cellular fractionation as described under materials and Methods. Western blot analysis of aliquots of the fractions were stained with anti GFP Ab to detect the ERK2 and its mutant, and with anti tubulin and anti c-Jun Abs as markers for the cytoplasmic and nuclear fractions respectively.
# Cellular Fractionation: Transfected COS7 cells were starved (0.1% FBS) for 16 h, after which they were washed with ice-cold PBS, suspended in ice-cold buffer H, and centrifuged (12,000×g, 5 min). Then, the nuclear and cytosolic fractions were isolated as described [H. Rubinfeld, T. Hanoch, R. Seger, J. Biol. Chem. 274, 30349 (1999)]. Briefly, the pellets were suspended in 0.1% NP-40 followed by centrifugation (12,000×g, 5 min). The supernatant, containing the cytosolic fraction, was boiled in sample buffer. The pellet was suspended in extraction buffer (420 mM Nacl, 50 mM β-glycerophosphate, 0.5 mM Na3VO4, 1.5 mM MgCl2, 0.2 mM EDTA, 1 mM DTT, 25% glycerol), incubate on ice for 10 min, sonicated (50 W, 2×7 sec), and centrifuged (12,000×g, 5 min). […]
# [2] = test system: CHO cells; test: Fluorescence microscopy of ERK2 constructs (subcellular localization); type: cell-based
# Protocol: FIGS. 1A-1R are photomicrographs illustrating the role of SPS in the non-regulated accumulation of ERK2 in the nucleus. CHO (FIGS. 1A-F and 1M-R) or COS7 cells (FIGS. 1G-L) were grown on cover slips and transfected with WT-ERK2, or the mutants 244-6A and Δ244-6. Twenty-four hr following transfection, the cells were serum-starved (16 hr), fixed, stained with DAPI and visualized using a fluorescent microscope.
# FIGS. 2A-2X are photomicrographs illustrating the role of SPS in the stimulated nuclear translocation of ERK2. CHO cells were grown on cover slips and co-transfected with HA-MEK1 together with either WT-ERK2, 244-6A, or Δ244-6. Twenty-four hr after transfection, the cells were serum starved for 16 hours, treated with TPA (250 nM, 15 min), except in WT-10 where the cells were treated with 10 nM TPA for 15 min. After treatments the cells were fixed and stained with either anti-HA Ab or DAPI.
# FIGS. 5A-5F are photomicrographs illustrating that mutating the Ser residues in the SPS to Glu induces the nuclear accumulation of ERK2. CHO cells were grown on cover slips and transfected with WT-GFP-ERK2 (WT), APA-GFP-ERK2 (APA), or EPE-GFP-ERK2 (EPE). Twenty-four hr after transfection, the cells were serum-starved, fixed, stained with DAPI and visualized by a fluorescent microscope.
# FIGS. 7A-7H are photomicrographs illustrating that EPE-ERKs translocates to the nucleus faster than WT-ERK. CHO cells were transfected with WT-GFP-ERK2 (WT) and EPE-GFP-ERK2 (EPE). Eight (FIGS. 7A-D) or twelve (FIGS. 7E-H) hours after transfection the cells were fixed, stained with DAPI and visualized by a fluorescent microscope.
# Immunofluorescence Microscopy. Cells were fixed (30 min in 3% paraformaldehyde in PBS or 10 min with ice-cold methanol), followed by 5-min permeabilization with 0.2% Triton X-100 in PBS (23° C.). The fixed cells were sequentially incubated with the appropriate Abs (45 min) followed by rhodamine-conjugated secondary Abs (45 min) and DAPI. Slides were visualized using a fluorescence microscope (Nikon, Japan) at 400× magnifications. […]
# [3] = molecular target: T1, importin-7 (Homo sapiens, UniProt O95373); test: Coimmunoprecipitation with importin-7; type: binding; conditions: HeLa cells, coimmunoprecipitation with anti GFP Ab, with or without stimulation
# T1 construct: endogenous in cells; host or cells: HeLa
# T1 sequence (O95373 whole entry): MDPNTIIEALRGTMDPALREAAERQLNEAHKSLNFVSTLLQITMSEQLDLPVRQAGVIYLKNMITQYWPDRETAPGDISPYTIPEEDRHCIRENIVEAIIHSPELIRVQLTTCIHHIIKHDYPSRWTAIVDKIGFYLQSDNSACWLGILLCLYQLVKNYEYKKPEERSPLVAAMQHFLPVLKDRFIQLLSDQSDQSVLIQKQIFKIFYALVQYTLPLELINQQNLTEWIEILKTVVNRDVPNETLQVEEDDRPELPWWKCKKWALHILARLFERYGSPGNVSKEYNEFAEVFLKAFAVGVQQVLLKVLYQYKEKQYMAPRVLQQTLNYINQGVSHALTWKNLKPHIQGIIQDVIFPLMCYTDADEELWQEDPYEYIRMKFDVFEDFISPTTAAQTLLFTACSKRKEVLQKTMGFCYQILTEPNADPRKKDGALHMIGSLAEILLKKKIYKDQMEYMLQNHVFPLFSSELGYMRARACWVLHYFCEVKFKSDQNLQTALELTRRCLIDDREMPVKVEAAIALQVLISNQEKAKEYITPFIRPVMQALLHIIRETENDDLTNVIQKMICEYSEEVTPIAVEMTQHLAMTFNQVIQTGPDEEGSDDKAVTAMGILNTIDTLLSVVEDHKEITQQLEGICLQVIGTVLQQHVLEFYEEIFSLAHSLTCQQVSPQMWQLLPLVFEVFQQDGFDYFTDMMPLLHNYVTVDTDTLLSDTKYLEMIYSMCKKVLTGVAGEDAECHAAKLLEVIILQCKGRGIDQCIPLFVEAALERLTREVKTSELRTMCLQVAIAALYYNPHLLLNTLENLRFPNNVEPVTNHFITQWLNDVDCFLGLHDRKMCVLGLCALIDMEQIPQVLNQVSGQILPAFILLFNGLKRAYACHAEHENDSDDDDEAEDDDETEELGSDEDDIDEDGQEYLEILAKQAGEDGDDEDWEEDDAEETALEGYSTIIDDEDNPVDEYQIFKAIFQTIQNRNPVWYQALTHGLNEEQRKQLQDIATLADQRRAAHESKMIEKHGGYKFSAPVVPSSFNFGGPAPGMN
# Protocol: (§1) FIGS. 19A-19C are autoradiographs illustrating that phospho-SPS interacts with importin-7 and releases Nup153c binding without involvment of importin-β. […]. Interaction of ERK2 with Importin-7 is enhanced by EGF stimulation and EPE mutation. HeLa cells overexpressing WT-ERK (WT), ERK-APA (APA), ERK-EPE (EPE) or GFP were serum starved and treated with EGF (50 ng/ml, 10 min). The extracts of the treated cells were then subjected to coimmunoprecipitation using A/G beads pre-conjugated with anti GFP Ab and mild washes. The coimmunoprecipitated importin-7 (first panel) and importin-β (third panel), as well as their loading amounts (panels 2 and 4 respectively) were determined by WB using anti importin-7 (αImp7) and importin-β (αImpβ) Abs. The equal amount of immunoprecipitated ERKs was determined with anti GFP (αGFP; IP) Ab. FIG. 19B. Interaction of 2GFP-SPS and its mutants with importin-7. HeLa cells overexpressing 2GFP, 2GFP-SPS, 2GFP-APA and 2GFP-EPE constructs were subjected to coimmunoprecipitation as described in FIG. 19A (without EGF stimulation). FIG. 19C. Interaction of NUP153 with WTERK2 and its APA and EPE mutants. NUP153c is elevated in APA-ERK2, but reduced in EPE-ERK2. Immunoprecipitated and stringently washed WT-ERK2 (WT), APA-ERK2 (APA) or ERK2 from […] cells pre-treated with or without TPA (250 nM, 15 min) were incubated with 0.5 μg recombinant His-Nup153c. […]
# [4] = test system: Nup153c; test: Interaction with recombinant His-Nup153c; type: binding; conditions: immunoprecipitated ERK2 incubated with 0.5 μg recombinant His-Nup153c
# Protocol: as §1
# [5] = test system: COS7 cells; test: Proliferation assay of COS7 cells overexpressing ERK2 constructs; type: cell-based; conditions: 72 hours after transfection
# Protocol: FIG. 16 is a bar graph illustrating that the prevention of SPS phosphorylation inhibits proliferation. COS7 cells overexpressing WT-ERK2, 244-6A-ERK2, ▴244-6-ERK2, APA-ERK2 or EPE-ERK2 were subjected to proliferation assay 72 hours after transfection. The bar graph represent the mean+/−SD (n=3), Student t test was used for statistical analysis (*, p<0.01).
molecule,measurement,setting,value
B1,localized in the nucleus,[1],~95%
same,speed of translocation into the nucleus,"[2]; CHO cells, shortly (8 or 12 hours) after transfection",faster than WT-ERK2
same,subcellular localization in quiescent cells,"[2]; overexpressed in CHO (and COS7) cells, serum-starved, fluorescent microscope",pronounced nuclear localization
same,interaction of ERK2 constructs with importin-7,[3],dramatically increased the interaction
same,interaction with Nup153,[4],reduced
same,serum-induced cell proliferation,[5],slightly enhanced
